Test results: publication doi:10.1101/2020.10.01.322123 (bioRxiv, 2020)
Like-named read-outs stand apart in the source and are kept apart here.

Columns and labels:
[1] = biological target: CT^C1, untagged C-terminal tail of FGFR2 (the last 58 residues) (UniProt P21802); assay: MST
[2] = biological target: FGFR2 juxtamembrane region (JM) (UniProt P21802); assay: MST
[3] = biological target: KD^pY1, mono-phosphorylated FGFR2 kinase domain (UniProt P21802); assay: MST
JM-KD^pY1 [4] = biological target: JM-KD^pY1 (UniProt P21802); assay: MST
[5] = biological target: CT^C1, untagged C-terminal tail of FGFR2 (the last 58 residues) (UniProt P21802); assay: SPR
JM-KD^pY1 [6] = biological target: JM-KD^pY1 (UniProt P21802); assay: SPR
[7] = biological target: FGFR2 juxtamembrane region (JM) (UniProt P21802); assay: MST; remark: listed apart in the source
JM-KD^Y657/658F = JM-KD^Y657/658F (UniProt P21802-3 414-764, Y657/658F)

KD^pY1, mono-phosphorylated FGFR2 kinase domain (from UniProt P21802-3 465-764) (domain or fragment)
Kd [1]: 3.75 µM
Kd [2]: 2.51 µM
Kd [3]: 0.112 µM

JM-KD^pY1 (from UniProt P21802-3 414-764) (domain or fragment)
Kd [1]: 0.304 µM
Kd (JM-KD^pY1 [4]): 3.46 µM
Kd [5]: 0.165 µM
Kd (JM-KD^pY1 [6]): 3.07 µM

JM peptide 407-420
fold weaker binding than peptide 414-430 [3]: 3 fold

CT peptide 801-815
Kd [3]: 25.9 µM

JM peptide 414-430
Kd [3]: 36.8 µM

B1: CT^C1, untagged C-terminal tail of FGFR2 (the last 58 residues) (domain or fragment)
chain: TTNEEYLDLSQPLEQYSPSYPDTRSSCSSGDDSVFSPDPMPYEPCLPQYPHINGSVKT
modifications: Atto488 dye in the MST assays where CT is the labelled partner
Kd [7]: 20.2 µM
Kd (JM-KD^Y657/658F): 5.65 ± 1.9 µM
